The source of these data is patent US20260200999A1, “SYNTHETIC TRANSCRIPTION FACTORS” (ETH ZURICH, priority 2022, published 2026).

Type in all cases: cell-based, human
The test system of data set [1] is reporter construct with MTERF1 binding sites (SEQ ID NO: 42) upstream a minimal TATA box driving mCerulean. In words: mCerulean reporter co-transfection with MTF construct in Hela cells (microscopy, flow cytometry). From the text:
The inventors engineered an exemplary “Human-derived transcriptional activator protein” (HumTAP) transactivation system by engineering a HumTAP transactivator and a promoter comprising the Response Elements/MTERF1 binding sites that is operably linked to a gene of interest. A prototype HumTAP protein was made by fusing a peptide consisting of amino acids 58 through 399 of the human MTERF1 gene (MTERF158-399 (SEQ ID NO: 1), Uniprot Q99551) to a peptide consisting of amino acids 430 through 551 of the RELA protein (RelA430-551 (SEQ ID NO: 3), Uniprot Q04206). This fusion is henceforth referred to as MTERF158-399::RelA430-551 (or “MTF”; SEQ ID NO: 100). A DNA construct was made with a strong EF1A promoter driving a constitutive expression of MTF (SEQ ID NO: 101) in human cells (“MTF construct”).
To construct a promoter with Response Elements/MTERF1 binding sites driving the gene of interest, the inventors placed MTERF1 binding sites (SEQ ID NO: 42) upstream a minimal TATA box (SEQ ID NO: 103). An mCerulean fluorescent reporter representing the gene of interest (Gol) was placed downstream of the TATA box. Each of these is referred to as a reporter construct. […] Using flow cytometry, relative mCerulean levels were measured and calculated by normalization to the transfection control in Hela cells (FIG. 1C). […]
On the technique in general: Flow cytometry measures light scatter and fluorescence of single cells or particles in a stream.

Data set [2] relates to Response Element-driven mCerulean reporter (MTERF1 binding sites, SEQ ID NO: 42). As to the kind of experiment: mCerulean reporter co-transfection with HumTAP constructs in HEK293 cells (flow cytometry). From the text: To construct a promoter with Response Elements/MTERF1 binding sites driving the gene of interest, the inventors placed MTERF1 binding sites (SEQ ID NO: 42) upstream a minimal TATA box (SEQ ID NO: 103). An mCerulean fluorescent reporter representing the gene of interest (Gol) was placed downstream of the TATA box. Each of these is referred to as a reporter construct. Five different reporter constructs were made comprising respectively 3, 5, 7, 9, and 11 MTERF1 binding sites 6 base pairs apart upstream of the TATA box (FIG. 1A; SEQ ID NO: 41, 44, 45, 46 and 47, respectively). They were co-transfected with the MTF construct into Hela cells. […] Using flow cytometry, relative mCerulean levels were measured and calculated by normalization to the transfection control in Hela cells (FIG. 1C). […] Next, reporter plasmids with varying spacer lengths (0, 6 bp and 10 bp; SEQ ID NO: 48, 44 and 49, respectively) (FIG. 1F) between a fixed number of REs (i.e. 5 REs/MTERF1 binding sites) were transfected with the MTF construct. […] This was confirmed using flow cytometry (FIG. 1H). […]
With the goal to engineer stronger and possibly shorter HumTAPs, the inventors fused the MTERF158-399 peptide (SEQ ID NO: 1) to a variety of transactivation domains and transfected HEK293 cells with those constructs and the reporter construct comprising 5×RE/MTERF1 binding sites without a spacer between them (SEQ ID NO: 48).
First, MTERF158-399 (SEQ ID NO: 1) was fused with different subsequences of RelA. RelA361-551 (SEQ ID NO: 27) corresponds to the sequence used in the construction of the bacterial-derived synthetic TF PIT2 [19], while RelA342-551 (SEQ ID NO: 29) contains all annotated transactivation domains according to domain annotation under Uniprot Q04206 (https://www.uniprot.org/uniprotkb/Q04206/entry). […] We also fused MTERF158-399 (SEQ ID NO: 1) to a set of transactivation domains previously found to be strong activators with a small genetic footprint (FIG. 4B).
To further decrease the DNA footprint of a HumTAP, the inventors investigated to what degree the DNA binding domain may be reduced. To this end, the inventors created 3 versions of MTERF1 subsequences fused to RelA430-551 (SEQ ID NO: 3). MTERF173-399 (SEQ ID NO: 7), MTERF1104-399 (SEQ ID NO: 9), and MTERF1135-399 (SEQ ID NO: 11) are subunits of MTERF1 without its mitochondrial transfer peptide (MTERF11-57; SEQ ID NO: 37) that either lack only the first […] N-terminal amino acids (MTERF58-72; SEQ ID NO: 39) or additionally, also lack the first (MTERF173-98; SEQ ID NO: 104) or both the first and second (MTERF1104-134; SEQ ID NO: 106) mterf motifs (FIG. 5A). The removal of N-terminal domains reduces the genetic footprint of a HumTAP (FIG. 5B). These constructs were co-transfected into HEK293 cells with the reporter construct containing 5×RE without a spacer in its promoter (SEQ ID NO: 48).
In addition to RelA430-551 (termed “v1”), the inventors tested three alternative subsequences: v2) RelA342-551 (SEQ ID NO: 29), which contains all transactivation domains as annotated on UniProt Q04206; v3) RelA361-551 (SEQ ID NO: 27), which is identical to the peptide used in the construction of PIT2 [2]; and v4) RelA521-551 (SEQ ID NO: 31), which constitutes only the transactivation domain 1 (TA1). The protein domains WW (SEQ ID NO: 21), KRAB of ZNF473 (SEQ ID NO: 23), Nuc-rec-co-Act (SEQ ID NO: 25), LMSTEN (SEQ ID NO: 19), and FoxoTAD (SEQ ID NO: 17) were recently identified as strong transactivators. To assess their functionality in the HumTAP context, the inventors created fusion proteins between each of them and MTERF158-399 (SEQ ID NO: 1) (FIG. 9A).
Upon co-transfection of HEK293 cells with plasmids encoding pEF1a-driven expression of the fusion HumTAPs, a Response Element-driven mCerulean reporter protein, and a mCherry transfection control, all peptides derived from RelA except TA1 mediated high levels of reporter gene expression. […]

In data set [3] the test system is Response Element-driven mCerulean reporter. In words: Dose dependency of mCerulean reporter expression on transfected MTF construct amount, HEK293. The conditions noted are these: HEK293, 24-well plates, 100 ng reporter construct, Hill equation, Hill coefficient 1. As for the experimental part:
By transfecting different amounts of the codon optimized MTF construct into HEK293 cells the inventors established a dose dependency of mCerulean reporter (Gol) expression on the expression levels of MTF (FIG. 3). HEK293 cells in 24-well plates were transfected with 0.75, 3, 6, 12, 24, 48, 96, 192, and 384 ng of MTF construct, 100 ng of reporter construct, and 50 ng of constitutive mCherry transfection control construct. Two days after transfection, the cells were analyzed using flow cytometry. The dose-response curve was modeled as a Hill equation assuming a Hill coefficient of 1.

B1: SEQ ID NO: 51: negative control promoter comprising 5 scrambled DNA binding sites spaced by 10 bp (nucleic acid)
DNA: ATTCTACCGTCTCGGGCCATTAAAGGCATATGATTCTACCGTCTCGGGCCATTAAAGGCATATGATTCTACCGTCTCGGGCCATTAAAGGCATATGATTCTACCGTCTCGGGCCATTAAAGGCATATGATTCTACCGTCTCGGGCCATTA
As for B1, the “mCerulean reporter (Gol) expression” value in data set [1] (Hela cells co-transfected with MTF construct, microscopy and flow cytometry) is given as “did not lead to mCerulean expression”; in data set [2] (HEK293 cells co-transfected with MTF construct, microscopy and flow cytometry), “showed the same behavior”.

B2: codon optimized MTF construct: DNA construct encoding MTF with codons changed to the most common ones in humans (nucleic acid)
DNA: ATGTTCGGCGTGAAGTGCCACAACACCGACAGCGAGCCCCTGAAGAACGAGGACCTGCTGAAGAACCTGCTGACCATGGGCGTGGACATCGACATGGCCCGCAAGCGCCAGCCCGGCGTGTTCCACCGCATGATCACCAACGAGCAGGACCTGAAGATGTTCCTGCTGAGCAAGGGCGCCAGCAAGGAGGTGATCGCCAGCATCATCAGCCGCTACCCCCGCGCCATCACCCGCACCCCCGAGAACCTGAGCAAGCGCTGGGACCTGTGGCGCAAGATCGTGACCAGCGACCTGGAGATCGTGAACATCCTGGAGCGCAGCCCCGAGAGCTTCTTCCGCAGCAACAACAACCTGAACCTGGAGAACAACATCAAGTTCCTGTATAGCGTGGGCCTGACCCGCAAGTGCCTGTGCCGCCTGCTGACCAACGCCCCCCGCACCTTCAGCAACAGCCTGGACCTGAACAAGCAGATGGTGGAGTTCCTGCAGGCCGCCGGCCTGAGCCTGGGCCACAACGACCCCGCCGACTTCGTGCGCAAGATCATCTTCAAGAACCCCTTCATCCTGATCCAGAGCACCAAGCGCGTGAAGGCCAACATCGAGTTCCTGCGCAGCACCTTCAACCTGAACAGCGAGGAGCTGCTGGTGCTGATCTGCGGCCCCGGCGCCGAGATCCTGGACCTGAGCAACGACTACGCCCGCCGCAGCTACGCCAACATCAAGGAGAAGCTGTTCAGCCTGGGCTGCACCGAGGAGGAGGTGCAGAAGTTCGTGCTGAGCTACCCCGACGTGATCTTCCTGGCCGAGAAGAAGTTCAACGACAAGATCGACTGCCTGATGGAGGAGAACATCAGCATCAGCCAGATCATCGAGAACCCCCGCGTGCTGGACAGCAGCATCAGCACCCTGAAGAGCCGCATCAAGGAGCTGGTGAACGCCGGCTGCAACCTGAGCACCCTGAACATCACCCTGCTGAGCTGGAGCAAGAAGCGCTACGAGGCCAAGCTGAAGAAGCTGAGCCGCTTCGCCCAGGCCGGCGAGGGCACCCTGAGCGAGGCCCTGCTGCAGCTGCAGTTCGACGACGAGGACCTGGGCGCCCTGCTGGGCAACAGCACCGACCCCGCCGTGTTCACCGACCTGGCCAGCGTGGACAACAGCGAGTTCCAGCAGCTGCTGAACCAGGGCATCCCCGTGGCCCCCCACACCACCGAGCCCATGCTGATGGAGTACCCCGAGGCCATCACCCGCCTGGTGACCGGAGCACAAAGACCCCCTGATCCTGCGCCAGCACCTCTTGGAGCACCTGGCCTGCCCAACGGCCTGCTGAGCGGCGACGAGGACTTCAGCAGCATCGCCGACATGGACTTCAGCGCCCTGCTGAGCCAGATCAGCAGC
As for B2, the “increase of reporter gene expression by codon optimization” value in data set [1] (Hela cells, 5xRE 6 bp spacer reporter (SEQ ID NO: 44), versus naturally used codons) is “ca. 3 fold”. In data set [2] (HEK cells), the “effect of codon optimization on reporter fluorescence levels” value is listed as “no significant effect”. In data set [3] (two days after transfection), the “EC10 of transfected MTF construct” value amounted to 1.25 ng and the “EC50 of transfected MTF construct” value came to 11.24 ng. For the same molecule, the “theoretical EC90 of transfected MTF construct” value in data set [3] (slight drop at higher amounts) turned out to be 101 ng.
